The numbers were not newly measured in article PMC3985900, which cites them from elsewhere.

The target in one data set is Asp85 (UniProt position 98, WARYADWLFTT). Put plainly: UV-vis. The note with it: Resting state, with retinal bound.
A further data set addresses Glu85 (UniProt position 98, WARYAEWLFTT). The data set can be described thus: UV-vis. The note with it: Resting state, with retinal bound.

A word on the pKa: it is the negative logarithm of the acid dissociation constant. For “Bacteriorhodopsin (native, purple membrane) (Halobacterium salinarum)”, in the data set with Asp85, the pKa result is given as “∼3”.

For the substance “Bacteriorhodopsin D85E (Halobacterium salinarum; D85E)”, the pKa with Glu85 is given as 9.4.
